{"source": "the domain aggregation screens of Martell et al. (2025)", "assay": "soluble fraction after stress (log2 fold change); higher = more stays soluble; pooled small domains, quantitative proteomics", "settings": "stress: pH 4", "procedure,_shortened": "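High-throughput quantitative proteomics was run on pooled custom libraries of small protein domains following pH 4 stress. Fold changes are on a log2 scale; higher values mean more of a domain remained soluble. The fold change in soluble amount is taken as a measure of aggregation propensity.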"}
{"sequence": "HMQSLSDQVFFYLKERIINNEMVPGSIISIEKLTSEFGISNTPVREAIVRLAGLDLVTIHRNKNITVS", "values": [{"measurement": "soluble fraction (log2)", "result": -0.707}]}
{"sequence": "HMQSMSADDWSEKARVLMSAGIIVMGQEAKEKILNLKSLVPLIEAASASNVSMIDSRTFDELLMIIP", "values": [{"measurement": "soluble fraction (log2)", "result": -2}]}
{"sequence": "HMQSREISYSEFVTAVEAGDVRNVTLDGEQVRFRRADGSDYVTIRPEDAEVTKLLMANDIPVRAEP", "values": [{"measurement": "soluble fraction (log2)", "result": -0.198}]}
{"sequence": "HMQSRRTPASLVERVRQLNGQYQDKEIAELLNREGIKTAHGNEFNAKRIEMIRRHNGISKHSAQ", "values": [{"measurement": "soluble fraction (log2)", "result": -0.0944}]}
{"sequence": "HMQSSTAISFNQFQKSWLSNNIKSFQLGEDKMTVRGSLKNGTQYETIVPSERLFQFIGQHPKDGQVQEMY", "values": [{"measurement": "soluble fraction (log2)", "result": "≥ 0.43"}]}
{"sequence": "HMQSTEQVSVTVTIPPGGELRIDSDTFRVLLNGENVLDKQSGDWLMLSRDLLYLDIESAIGNGLSGNLIYT", "values": [{"measurement": "soluble fraction (log2)", "result": -0.143}]}
{"sequence": "HMQSVEELLDAIGDERLLHILLEADRKTLQIVVLKMMGYAPKEIGSHIGMPEQTVYTKLRRLREKIKKI", "values": [{"measurement": "soluble fraction (log2)", "result": -1.07}]}
{"sequence": "HMQSYHVGDKVTIKNSASHWATGQSIYNGVKGHTYKIIQTNGHKLLLDQVISWINDGDVYKAGS", "values": [{"measurement": "soluble fraction (log2)", "result": 0.0872}]}
{"sequence": "HMQSYSTIIGVIELRLSGIGYRTTKARYGIGNSTVTLIMNRFKETGFTLDDLKTMEPTKVEALFYPP", "values": [{"measurement": "soluble fraction (log2)", "result": -0.229}]}
{"sequence": "HMQSYSYYDFQKALQNKTVESVIIEPDKTVPTGTLQIQLKGDTKEELNVSDVTEVEELLQSYDVDYKLRSV", "values": [{"measurement": "soluble fraction (log2)", "result": 0.0751}]}
{"sequence": "HMQTASVRFADGQLEVKQKGLQRVSVYSLNGMTVANKAVQGQDYVTISLPRAAYIVKITTQNGSFTKVI", "values": [{"measurement": "soluble fraction (log2)", "result": 0.218}]}
{"sequence": "HMQTGRREALEAQLRETGGEAMLARLREIDPEAAARLHPADEKRVIRALEVYEETGKTITQHNLETKAVPP", "values": [{"measurement": "soluble fraction (log2)", "result": -0.0698}]}
{"sequence": "HMQTKEVDYGTFMSMIDEKNIGTVEIGDSQIVFTDKDNKNLYETGVMNDPDLAQRLHDAGATFSS", "values": [{"measurement": "soluble fraction (log2)", "result": 0.0149}]}
{"sequence": "HMQTLQTTSLRVSENQLFILDQQALPQEKRWLAADNVALLVDHIHTLRVRGAPLIGLSASLLLALLAGRLT", "values": [{"measurement": "soluble fraction (log2)", "result": -0.764}]}
{"sequence": "HMQTMNKTNISNFEKYLNSGDVSEVIVVRNKSSVRVTLTPEALRSSEHQAVVGKNILGQENIKGPHYQFEV", "values": [{"measurement": "soluble fraction (log2)", "result": 0.138}]}
{"sequence": "HMQTPPGRYRHYKGGLYEVIATARHSETLEPMTVYRALYGEQGLWVRPAAMFAEDITLEGVRQPRFARI", "values": [{"measurement": "soluble fraction (log2)", "result": -1.27}]}
{"sequence": "HMQTRIDISDAVLQWVVRKTQFAALPPKAAAHLTKWVRGEKKPTFNQLEEVSKATGIPLGYFFLQQPPHE", "values": [{"measurement": "soluble fraction (log2)", "result": -0.561}]}
{"sequence": "HMQTTEDMEINAKVDEYLREMYLWNDEYKTLNLDHNKGYEDFFYDALGSMTTNTLDKKTYVGSDGKTYYNL", "values": [{"measurement": "soluble fraction (log2)", "result": -0.933}]}
{"sequence": "HMQTYTYYIAKNDISIGQKITPDMLIEKQVNLGDSKDRYLSREQLETGKYIAVRQIPAGELISSASANE", "values": [{"measurement": "soluble fraction (log2)", "result": 0.0749}]}
{"sequence": "HMQVAPQVERLLRVMGNETLSLSDIMGRMGLSDKKNFRESYLVPALRSAVIEMTIPDKPNSSLQKYRRIHE", "values": [{"measurement": "soluble fraction (log2)", "result": -0.125}]}
{"sequence": "HMQVEEKNKKIELYIEGKIKELESNLMYVPNENKKKLLMAFMNRNEDIEIIKTKIDTIFNKSVAAYKENM", "values": [{"measurement": "soluble fraction (log2)", "result": -0.894}]}
{"sequence": "HMQVIDNHWRPSRDALDILLRDGISEHFIEDAIPEFILYWRERGTQDSNWNSRFLQHIRLQWARYTNAV", "values": [{"measurement": "soluble fraction (log2)", "result": -0.936}]}
{"sequence": "HMQVPDLYRTLGVGRDATTEAIEAAYVGWQARLSAGEPISTQEWERLRYAHEVLSNPQRRSLYDSLVAET", "values": [{"measurement": "soluble fraction (log2)", "result": 0.0568}]}
{"sequence": "HMQVPVNVSMEILDWVIAHIKIDALPNQIREYLNLWVNGEKEPTFNQVEKVSKATGIPLGYFFLQTPPIED", "values": [{"measurement": "soluble fraction (log2)", "result": -1.33}]}
{"sequence": "HMQVQHVWNRLKRPNGDVLYEINRDHPLVSASLDAAADRGAIETLLRQIEQSLPVNQLYVDMNADEHFE", "values": [{"measurement": "soluble fraction (log2)", "result": -0.812}]}
{"sequence": "HMQVSDAAQLAEVVKTVLAENPAAVGDYRKGKKAAIGFLLGQVMRHMRGTANPAVARQLLEQALEDE", "values": [{"measurement": "soluble fraction (log2)", "result": 0.231}]}
{"sequence": "HMQVSDLSAIDSLIDKVLSEQQAAVQDFRSGQGKAMGFLIGKVMQASDGKANPKVIRELMGKKLA", "values": [{"measurement": "soluble fraction (log2)", "result": -0.0313}]}
{"sequence": "HMQVSIGERVKLARMSAGLNQRQLGKEMGMSAMAISKYETGEVVPNSRVLIQLSQTLHVPLDFFFRS", "values": [{"measurement": "soluble fraction (log2)", "result": 0.0627}]}
{"sequence": "HMQVTDADFDQIRLAVLSQLKQNSLTVAELLKIIPFKEQKVMPVIRFLIDNRVLEHGTDMKLTVGNSVK", "values": [{"measurement": "soluble fraction (log2)", "result": -0.34}]}
{"sequence": "HMQVTIGADLAEHAARLDVQISDVVKLIKSGVSEGEIKVGLTKLETRLAHPELALVENKLAYLKALIAES", "values": [{"measurement": "soluble fraction (log2)", "result": -0.79}]}
